The values below come from the supplement of paper PMC10567573.

B1: ATE1 (parent)
chain: DYFPSEDFYRCGYCKNESGSRSNG
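Also: lentivirally expressed fusions sorted by FACS into six bins by GFP to DsRed ratio, PSI derived from sequencing read proportions per bin multiplied by bin number.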

The variants in this data set derive from B1. The data set can be described thus: protein stability index of a GFP-peptide fusion (GPS, HEK-293T) (PSI 1-6); higher = more stable. As to conditions: c terminus: a fixed tail appended.
DYFPSEDFYRCGYCKNECGSRSNG [S18C]: the protein stability index amounted to 1.08.

Consider DYFPSEDFYRCGYCKNEHGSRSNG [S18H], for which the protein stability index is 1.95. Regarding DYFPSEDFYRCGYCKNEEGSRSNG [S18E], the protein stability index was found to be 2.53.

Turning to DYFPSEDFYRCGYCKNENGSRSNG [S18N], the protein stability index worked out at 1.35.

For the variant DYFPSEDFYRCGYCKNEQGSRSNG [S18Q], the protein stability index was 2.37. DYFPSEDFYRCGYCKNEAGSRSNG [S18A]: the protein stability index was found to be 2.67. As to DYFPSEDFYRCGYCKNELGSRSNG [S18L], the protein stability index was 1.84. Consider DYFPSEDFYRCGYCKNEPGSRSNG [S18P], for which the protein stability index is 2.2. Take DYFPSEDFYRCGYCKNEFGSRSNG [S18F]: the protein stability index is 3.12. With DYFPSEDFYRCGYCKNEVGSRSNG [S18V], the protein stability index came to 2.17. DYFPSEDFYRCGYCKNEKGSRSNG [S18K]: the protein stability index worked out at 2.33.

On to DYFPSEDFYRCGYCKNEMGSRSNG [S18M], for which the protein stability index stood at 1.24. For the variant DYFPSEDFYRCGYCKNEIGSRSNG [S18I], the protein stability index was found to be 1.53.

In the case of DYFPSEDFYRCGYCKNERGSRSNG [S18R], the protein stability index worked out at 1.68. Consider DYFPSEDFYRCGYCKNETGSRSNG [S18T], for which the protein stability index was determined as 2.07. On to DYFPSEDFYRCGYCMNESGSRSNG [K15M], for which the protein stability index was found to be 3.08. As to DYFPSEDFYRCGYCINESGSRSNG [K15I], the protein stability index was determined as 2.18. On to DYFPSEDFYRCGYCLNESGSRSNG [K15L], for which the protein stability index was 1.82.

For DYFPSEDFYRCGYCANESGSRSNG [K15A], the protein stability index was 1.59. With DYFPSEDFYRCGYCCNESGSRSNG [K15C], the protein stability index turned out to be 2.17.

DYFPSEDFYRCGYCQNESGSRSNG [K15Q]: the protein stability index was determined as 2.65. In the case of DYFPSEDFYRCGYCWNESGSRSNG [K15W], the protein stability index came to 2.25. As to DYFPSEDFYRCGYCRNESGSRSNG [K15R], the protein stability index is 1.17. Turning to DYFPSEDFYRCGYCFNESGSRSNG [K15F], the protein stability index came out at 2.65. In the case of DYFPSEDFYRCGYCTNESGSRSNG [K15T], the protein stability index was 1.85. In the case of DYFPSEDFYRCGYCHNESGSRSNG [K15H], the protein stability index worked out at 1.64. With DYFPSEDFYRCGYCENESGSRSNG [K15E], the protein stability index was 2.46.

As for DYFPSEDFYRCGYCNNESGSRSNG [K15N], the protein stability index was found to be 2.28. As for DYFPSEDFYRCGYCPNESGSRSNG [K15P], the protein stability index came to 3.41. Take DYFPSEDFYRCGYCVNESGSRSNG [K15V]: the protein stability index was 2.18. With DYFPSEDFYRCGYCYNESGSRSNG [K15Y], the protein stability index came out at 2.89. For the variant DYFPSEDFYRCGYCSNESGSRSNG [K15S], the protein stability index was 2.42.

As for DYFPSEDFYRCGYCDNESGSRSNG [K15D], the protein stability index came to 2.74. Regarding DYFPSEDFYRCGYCGNESGSRSNG [K15G], the protein stability index was determined as 1.95. Take DYFPSEDFYRHGYCKNESGSRSNG [C11H]: the protein stability index was found to be 4.4.

Take DYFPSEDFYRGGYCKNESGSRSNG [C11G]: the protein stability index came out at 4.36. DYFPSEDFYRNGYCKNESGSRSNG [C11N]: the protein stability index stood at 3.84. For DYFPSEDFYREGYCKNESGSRSNG [C11E], the protein stability index is 4.92.

DYFPSEDFYRVGYCKNESGSRSNG [C11V]: the protein stability index is 3.73. As for DYFPSEDFYRIGYCKNESGSRSNG [C11I], the protein stability index turned out to be 3.83. Consider DYFPSEDFYRAGYCKNESGSRSNG [C11A], for which the protein stability index came to 3.73. As to DYFPSEDFYRTGYCKNESGSRSNG [C11T], the protein stability index is 4.55.

As to DYFPSEDFYRKGYCKNESGSRSNG [C11K], the protein stability index is 4.17. DYFPSEDFYRDGYCKNESGSRSNG [C11D]: the protein stability index came to 4.21. With DYFPSEDFYRRGYCKNESGSRSNG [C11R], the protein stability index was 3.9. Consider DYFPSEDFYRPGYCKNESGSRSNG [C11P], for which the protein stability index came out at 4.15. For the variant DYFPSEDFYRMGYCKNESGSRSNG [C11M], the protein stability index turned out to be 4.12.

DYFPSEDFYRQGYCKNESGSRSNG [C11Q]: the protein stability index came out at 4.36. For DYFPSEDFYRLGYCKNESGSRSNG [C11L], the protein stability index stood at 2.96. Under DYFPSEDFYRYGYCKNESGSRSNG [C11Y] stands 3.42; under DYFPSEDFYRWGYCKNESGSRSNG [C11W], 4.12. The result for DYFPSEDFYRSGYCKNESGSRSNG [C11S] reads 3.54; that for DYFPSEDFYRFGYCKNESGSRSNG [C11F], 3.46. Turning to DYFPSEDFYRCGYCKHESGSRSNG [N16H], the protein stability index came out at 2.

Consider DYFPSEDFYRCGYCKLESGSRSNG [N16L], for which the protein stability index stood at 1.53. For the variant DYFPSEDFYRCGYCKCESGSRSNG [N16C], the protein stability index turned out to be 1.47. As for DYFPSEDFYRCGYCKTESGSRSNG [N16T], the protein stability index was found to be 1.97.

Take DYFPSEDFYRCGYCKPESGSRSNG [N16P]: the protein stability index amounted to 2.23. Take DYFPSEDFYRCGYCKWESGSRSNG [N16W]: the protein stability index was 1.41. With DYFPSEDFYRCGYCKFESGSRSNG [N16F], the protein stability index was 1.62. In the case of DYFPSEDFYRCGYCKAESGSRSNG [N16A], the protein stability index is 3.01. Consider DYFPSEDFYRCGYCKQESGSRSNG [N16Q], for which the protein stability index was determined as 1.77. DYFPSEDFYRCGYCKMESGSRSNG [N16M]: the protein stability index came to 2.62.

In the case of DYFPSEDFYRCGYCKVESGSRSNG [N16V], the protein stability index was determined as 1.74. Consider DYFPSEDFYRCGYCKRESGSRSNG [N16R], for which the protein stability index worked out at 2.1. The result for DYFPSEDFYRCGYCKIESGSRSNG [N16I] reads 1.74; that for DYFPSEDFYRCGYCKYESGSRSNG [N16Y], 2.43; that for DYFPSEDFYRCGYCKDESGSRSNG [N16D], 2.79. Take DYFPSEDFYRCFYCKNESGSRSNG [G12F]: the protein stability index came out at 3.18. Turning to DYFPSEDFYRCSYCKNESGSRSNG [G12S], the protein stability index was found to be 3.15. The result for DYFPSEDFYRCKYCKNESGSRSNG [G12K] reads 2.68. Under DYFPSEDFYRCNYCKNESGSRSNG [G12N] stands 2.69. For the variant DYFPSEDFYRCRYCKNESGSRSNG [G12R], the protein stability index is 4.05. DYFPSEDFYRCPYCKNESGSRSNG [G12P]: the protein stability index was found to be 1.93. The result for DYFPSEDFYRCAYCKNESGSRSNG [G12A] reads 3.25; that for DYFPSEDFYRCMYCKNESGSRSNG [G12M], 2.77; that for DYFPSEDFYRCLYCKNESGSRSNG [G12L], 2.63. For DYFPSEDFYRCWYCKNESGSRSNG [G12W], the protein stability index amounted to 3.35. On to DYFPSEDFYRCIYCKNESGSRSNG [G12I], for which the protein stability index is 2.84. The result for DYFPSEDFYRCQYCKNESGSRSNG [G12Q] reads 2.64; that for DYFPSEDFYRCEYCKNESGSRSNG [G12E], 3.04; that for DYFPSEDFYRCCYCKNESGSRSNG [G12C], 2.01.

Turning to DYFPSEDFYRCYYCKNESGSRSNG [G12Y], the protein stability index is 2.49. For the variant DYFPSEDFYRCDYCKNESGSRSNG [G12D], the protein stability index worked out at 3.03. DYFPSEDFYRCVYCKNESGSRSNG [G12V]: the protein stability index was 2.4.

DYFPSEDFYRCTYCKNESGSRSNG [G12T]: the protein stability index turned out to be 2.99. Take DYFPSEDFYRCGQCKNESGSRSNG [Y13Q]: the protein stability index turned out to be 3.52. Regarding DYFPSEDFYRCGGCKNESGSRSNG [Y13G], the protein stability index was found to be 3.4. Consider DYFPSEDFYRCGPCKNESGSRSNG [Y13P], for which the protein stability index is 3.75. Take DYFPSEDFYRCGKCKNESGSRSNG [Y13K]: the protein stability index is 3.5. On to DYFPSEDFYRCGCCKNESGSRSNG [Y13C], for which the protein stability index turned out to be 2.18. As for DYFPSEDFYRCGFCKNESGSRSNG [Y13F], the protein stability index amounted to 2.4. On to DYFPSEDFYRCGTCKNESGSRSNG [Y13T], for which the protein stability index was 3.93. Under DYFPSEDFYRCGWCKNESGSRSNG [Y13W] stands 3.73.
